According to publication PMC9931449:

Assays:
Assay in all cases: fluorescence anisotropy
APE1 WT = APE1 WT (Homo sapiens, UniProt P27695 1-318)
APE1 C310S = APE1 C310S (Homo sapiens, UniProt P27695 1-318, C310S)
APE1 C65S = APE1 C65S (Homo sapiens, UniProt P27695 1-318, C65S)
Sequence of APE1 C65S (P27695 whole entry C65S): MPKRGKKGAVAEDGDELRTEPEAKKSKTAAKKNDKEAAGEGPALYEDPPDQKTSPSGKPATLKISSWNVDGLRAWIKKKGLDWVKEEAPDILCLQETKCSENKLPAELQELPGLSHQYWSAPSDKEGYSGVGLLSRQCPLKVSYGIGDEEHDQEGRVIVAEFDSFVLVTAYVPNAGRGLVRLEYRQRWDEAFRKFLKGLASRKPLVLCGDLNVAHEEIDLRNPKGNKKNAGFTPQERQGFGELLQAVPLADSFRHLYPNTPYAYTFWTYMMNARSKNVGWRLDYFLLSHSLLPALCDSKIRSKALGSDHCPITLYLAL

Sequence of APE1 C310S (P27695 whole entry C310S): as the sequence (P27695 whole entry C65S) above, with S65C, C310S counted along it
Sequence of APE1 WT (P27695 whole entry): as the sequence (P27695 whole entry C65S) above, with S65C counted along it

B1: N3 WT duplex (dsDNA)
DNA 1: TTGGGCGGGGCCTGGGCGGGGCC
DNA 2: GGCCCCGCCCAGGCCCCGCCCAA
APE1 WT
  binding result: no binding

## TAGGGTGCTGTTTGGGCGGGGCCTGGGCGGGGCC (structured_DNA) [N3-5 G4]
APE1 C310S
  binding result: binds
APE1 C65S
  binding result: binds

## TTGGGCGGGGCCTGGGCGGGGCC (structured_DNA) [N3-4 G4]
APE1 C310S
  binding result: binds
APE1 C65S
  binding result: binds
